According to patent US20260103490A1 (published 2026):

T1: ALFA^ST peptide (Ac-PSRLEEELRRRLTEP-Amide)
T1 construct: also called free ALFA^ST peptide; ALFA peptide
T1 peptide: Ac-PSRLEEELRRRLTEP-NH2

B1: NbALFA^ST (NbALFA clone 1G5) (VHH)
VHH: EVQLQESGGGLVQPGGSLRLSCTASGVTISALNAMAMGWYRQAPGERRVMVAAVSERGNAMYRESVQGRFTVTRDFTNKMVSLQMDNLKPEDTAVYYCHVLEDRVDSFHDYWGQGTQVTVSS
notes: Alpaca single-domain antibody; also called ALFA Selector^ST (resin-immobilised form); FluoTag-X2 anti-ALFA (fluorophore-coupled form)
B2: NbALFA^PE (NbALFA mutant for Peptide Elution) (VHH)
VHH: EVQLQESGGGLVQPGGSLRLSCTASGVTISALNAMAMGWYRQAPGEERVMVAAVSSRGNAMYRESVQGRFTVTRDFTNKMVSLQMDNLKPEDTAVYYCHVLEDRVDSFHDYWGQGTQVTVSS
notes: Weaker mutant of NbALFA^ST; used immobilised on agarose (ALFA Selector^PE) or in solution (MST); also called ALFA Selector^PE (resin-immobilised form)

What was measured:
FLAG-HA-MBP-myc-ALFA^ST = experiment: dot blot of a dilution series of the MBP fusion
Method: Membranes were scanned using Odyssey CLx (Li-COR). Quantifications were performed using ImageStudioLight (Li-COR).

[1] = target: T1, ALFA^ST peptide …; experiment: competitive elution of shGFP2-ALFA^ST from NbALFA^PE resin

Binder	fold lower detection limit than for the other epitope tags (FLAG-HA-MBP-myc-ALFA^ST)	binding result [1]
B1	~10 fold	–
B2	–	binds
